Experimental data as given in the DeepSol protein solubility set.

Assay: soluble on expression in E. coli; label from the status in PepcDB or PDB records

Sequence	soluble on expression in E. coli
MSLKILLMLLCVSVLGCSKNSVESEKPVDVLLIGGGIMSATLGTYLNELEPGWTIEMVERLDKVAEESSNGWNNAGTGHSAFCELNYTSEAADGSMDISKAVAINENFEISKQFWAYQVDRKVLNDPKSFINNVPHMSFVWGDDNVAFLKKRHAALQHSSLFRGMEYSEDPEQIKQWVPLVMEGREPGQKIAATRMSIGTDVNFGEITRQLVGSLSAKDTFKLRLQHEVRDLKRNDDNTWTVTMADLANGDKETSVKARFVFIGAGGGALKLLQMSGIPEAEGYAGFPVGGSFLATTNPDVVKRHLAKVYGKASVGSPPMSVPHLDTRMIDGKPVLLFGPFATFSTKFLKNGSLWDLPGSVTSGNIGPMFNAGIDNFDLSQYLIGQLMLSQDDRMASLREYFPEARDEDWKLVQAGQRVQIIKKDAEKGGVLQFGTEVVTAADGSVAALLGASPGASTAAPIMLSVLEKAFKDKVATPEWQARLKEIVPSYGRKLNNDIELTNSTRAWSSERLQLIHVPVQEGGSHHHHHH	soluble
MSLKIRDPYIDERTNMVVIRESPDVVRLAERLVELQDRNDSEVVLEVEVLEVSSTKLTQLGVQYPNSFTLTPLSATGASSLTLSDFKGLNSDRIGVSTPNVVLNLRRELGDTDLLANPKIRAKNHEKAKILIGDKLPVITTTSTSTGFVSESVQYIDVGLKLEVEPSISPDDEVSMKINLEVSSLTNQITTRSGTVAYQIGTRTANTVLKLHDGETQLLAGLIKTQQTSSAARIPGLGDIPLLGRLFSSQTDNGVRNEIVLSITPRVVKPSHRPDTNEGHHHHHH	soluble
MSLKISDGNWLIQPGLNLIHPLQVFEVEQQDNEMVVYAAPRDVRERTWQLDTPLFTLRFFSPQEGIVGVRIEHFQGALNNGPHYPLNILQDVKVTIENTERYAEFKSGNLSARVSKGEFWSLDFLRNGERITGSQVKNNGYVQDTNNQRNYMFERLDLGVGETVYGLGERFTALVRNGQTVETWNRDGGTSTEQAYKNIPFYMTNRGYGVLVNHPQCVSFEVGSEKVSKVQFSVESEYLEYFVIDGPTPKAVLDRYTRFTGRPALPPAWSFGLWLTTSFTTNYDEATVNSFIDGMAERNLPLHVFHFDCFWMKAFQWCDFEWDPLTFPDPEGMIRRLKAKGLKICVWINPYIGQKSPVFKELQEKGYLLKRPDGSLWQWDKWQPGLAIYDFTNPDACKWYADKLKGLVAMGVDCFKTDFGERIPTDVQWFDGSDPQKMHNHYAYIYNELVWNVLKDTVGEEEAVLFARSASVGAQKFPVHWGGDCYANYESMAESLRGGLSIGLSGFGFWSHDIGGFENTAPAHVYKRWCAFGLLSSHSRLHGSKSYRVPWAYDDESCDVVRFFTQLKCRMMPYLYREAARANARGTPMMRAMMMEFPDDPACDYLDRQYMLGDNVMVAPVFTEAGDVQFYLPEGRWTHLWHNDELDGSRWHKQQHGFLSLPVYVRDNTLLALGNNDQRPNYVWHEGTAFHLFNLQDGHEAVCEVPAADGSVIFTLKAARTGNTITVTGAGEAKNWTLCLRNVVKVNGLQDGSQAESEQGLVVKPQGNALTITLEGGSHHHHHH	soluble
MSLKITKIETTLFEYKLDRSMGDANSPMGRKKGSGCVLELITDEGISGISIGGQNALPQINSIFDGILLNNDPKAIFSIWKRMVEKYFKGGHDGIANDAISAIDVALWDLKAKINEEPLWKTLGGNNNKVNVYASDIALPINDDDLFNWYSKMSDKFGFKGGKLKVGLDQESDLKRLELMHNALSKNCDDPILYVDSNEYWSPKQTIRNVSEMEERFTLGWIEEPARRWDFLGLKKVSDSLQTPVCAGENLDTLGDFLPYFHHRSADVIQVSHGMTGISGALQIADAAYALELPVTLGGSSGIIHAHIANAIPNCITVEVPHPEPETKVFTSDVTIKDGYAFVGNKPGMGIEVNYEELAKHKVEKVSQKAGPSPYGRRPGAGLYEIPPTKEEISEGQSKEGHHHHHH	soluble
MSLKIVVTKFGGSSLADSNQFKKVKGIIDSDANRKYIIPSAPGKRTNKDYKITDLLYLCNAHVKNGIPFDDVFKLISQRYTEIVSELNIDMDIAYYLEKVKKNIENGASSDYAASRGEYLNGVILAKYLNAEFIDAAEVIFFDKSGCFDEKKSYEKIKEKVLSCNKAVIPGFYGSSFNGDVKTFSRGGSDVTGSIISAGVNADLYENWTDVSGFLMADPRIVENPKTISKISYKELRELSYMGATVLHEEAIFPVKDSGIPINIKNTNKPSDPGTLILSDTHKEINLGTITGIAGKKNFTVIAIEKALLNSEVGFCRKILSILEMYGVSFEHMPSGVDSVSLVIEDCKLDGKCDKIIEEIKKQCNPDSIEIHPNMALVATVGTGMAKTKGIANKIFTALSKENVNIRMIDQGSSEINVIVGVETVDFEKAVKSIYNAFNEGHHHHHH	soluble
MSLKIVYITENAEKLAKDVKSVFDYYFYDNEVFNIKDFEITGNETGFVFIMASGIVLRKYIPEIQNDKLKDPFVILMDESKKHVVPLLSNHIGGGNYFSDLIGNFLNLDVVKTTATDVNGKIGIDELSKIYFLENPLKKDILSVNKKVLSEKPDLIIPKAWKTSKKLLNSYNVSFHDESHVLVDDIVLKPKTVSLGLGSRRNIEKSKVYWAVKKALYLRDIPTWRIDTFSTVSVKKDEYGILKTAERFDKDLFIFEIDELNEIYSKYPLIRSEFVFKTIGTYGVSEPCAILGISKITGETDFEMKKLVLNKMKKDGVSVSIAVEGHHHHHH	not soluble
MSLKKAKLIFKDNTPFSLDFDDFYFNSKDGLNESKFVYTHSFEWKNQENFIIAESGFGIGLNFFLTLKRLLETTPSKRPKKLFYISVEAFYIEKEQLREIYQKLEFYEEFKELLEQFLKFYPKAKEGIYRFYFEDCFLDLVFEDIAVLKELDFKADVWYLDGFSPNKNLQMFDENLIFEVARLSKKNTQICTFSSASFLQKNLKKYGFRVEKTKGFRKREMIKAYLENELEFKDKEAYFSRTEGHHHHHH	soluble
MSLKKILIIVPDGGMLFESAGIADILMQANRLHPEGAREICYQVKLATTQPHQVIHGQSGLNLLADHRLHEIDPREPLDTIMITGRGQNPQEGMAVVDWLRLAAPHARRIVSICGGAMLLAQTGLLDGRRATTHWKLLETMQAEFPQIRVEGGPLYIQDEHIWTSGGVSSGFDLTLALVEEDYGEGHHHHHH	not soluble
MSLKKKVVIVGGGFTGLNTARILSNRKDVEVTLIDRKNYHLFQPLLYQVAMAALGEGDIATPLRNMLAGYDNVTVFKGNVCNVDLEQKKVKTDFGDIEYDYLVLACGAQHHYFGKNDWEEHAPGLKNLAQASEIRRRVMEAYEAAERTNDMKERKKQLTFVIVGGGPTGVELAGSIGEMSRYTLSKFYRHIDPKLTRIFIVEAAERILGTFSPELSSKATRELEKLGVQVWTSSMVSDVDADGVQIGRERIEAATVLWAAGVKASEIGQNMGVQTDRSGRIMVEADLSLPGHPEVFVGGDQACYTLENGSTLPGMAPVAMQEGKAIGRMILDDLKGKPRKPFKYRDKGQMATIGRNRAIVEIGNLKFDGEGHHHHHH	soluble
MSLKLIASDMDGTLLDAKMSITNDNASAIREAERLGIEFMVATGRAYTEAKPALEEAGIDCAMITLNGAQVFDKDGHSLFTAGIEKETVTEVLTILSQHNVYYEISTNKGIFSEHQEKRIENFAAHIAESMPHLTYKVAIAMASAHLSLLHITYVDRLDDILKDDSIEVLKIIGFSMDGPKVLGPAGMEVEELDDLVVTSSALNNIEINHRLAQKGIAVARVAKERGIPAEQVMTIGDNLNDVSMIQWAGVSFAMGNAELELKEYAKYETATNLENGVGEAILRAIREDEGHHHHHH	soluble
MSLKLIATDMDGTLLRSNGEFPNEFPLILDSLLNKNIMFSVASGRQYFTLKDNMAGFEDKITFIAENGAFIVKDGKELFAKTLDRDMLSKVVDDAKKVPDCKLVLCGKKSAYVLDKSSAFIEEVEKYYHKSAVVNSLDEIDDEFFKIAICDYKGSANNSNVLLSPKWGKLFQLTVSGDIWLDIGRNDVNKGTAIKFLQDKFNINENETMAFGDYYNDVSMLQSVYHSYVMENAPDGVKKHGRFIAKSNDESGVIQVIKNKVLELGAEGHHHHHH	soluble
MSLKLITCDLDGTLLNSSMEISDANVQAIKRAQENGIEFMVASGRAPHESQPMLKEYWIDCSFINLNGGLVFDTAGNLIVKNPLKLETAKKICRLLKKEGFYFELVTSNHVYSEDLSQRITNVAHLMVELNPMLTFKEAVLVSASKPAIVSIQQVPSYEDLMDEPGTEVMKILVFDSRGQYAFTDVIKKIEEIDKLSITSSAADNIEINAASAQKGQSLLDYAAAKGIKREEIAAIGDNLNDESMIQAAGTGVAMGNAVPQIKTIASFVTKSNNEDGVAWAIDKIIADNQKEGHHHHHH	soluble
MSLKLVAIAGSIGEQSYNRMLLQYIAKHFENLVDIELLNIDDVPVFNEDEDLSDNIKIQKIYQKIYGADGVILATPEHNHTVTAAIKNVIEWLSFKLHPFDGKPVWIVGASYFNQGSSRAQLHLKQILEAPGVNAIVMPGNEFLLRNAKEAFDAEGQLKDAGTVQFLEMVIQKFIKFVKVIDMLDAPDPKSYQDEDLESKGKVNTTIEGVDMHDEHWVEKAAQKVHAVDGSTYVKLDRGILTVDQLNYFLKTMPVELTYADDNNQFIYYNKNQPADKMLAPRNPGQAGDPLADVHPGRAVDRVKQVIHALRTGETDLVSMPVPGNGPDRHVMHYYKAMRDENGRYRGVNEWVTDIMPIIKYYLASTGEGHHHHHH	soluble
MSLKNPRIVVVDDSPFSVSILTDMLQRNGFEVVGSASNLNEVKKAVTELNPNLVTMDMVLADTDGLECTKIIHQINPEIRVIAISSMMDDEILAKAKKNNISAYIQKPIDEEELVLAINRISSDDDLYSELKDRYFDIFKQAFSYAFNKFIKEVPNFVEKDEHTVEHVEKGISIVMGIIGKYCGRLILNISYETADKFVESVLNRPAKDLQEILNVVAEFANIVGGNACSMINRENKIFGMRIAPPTTIYGDSINISRNSLDTMNFFTVNVTAGEISVNIGFNKGAVEWMSNEGHHHHHH	soluble
MSLKPSTRSNVQPFRVMQMLDRVHRRRREGKDTLMFCAGQPSTGAPEAVIEEAEIALRSGPLGYTEVIGDREFRERIADWHSATYDVDTNPDNVIVTTGSSGGFVASFIATLDHGDYVAMPTPGYPAYRNILESLGAKVLNLRCTAETRFQPTAQMLEELPHKPKAVIVTSPGNPTGTIIDPEELERIAKWCDDNDAVLISDEDYHGMSFGRPLATAHQFSKNAIVVGTLSKYFSMTGWRVGWIIVPDELVTPIENLQASLSLCAPAIGQAAGRAAFTLEAGAELDAHVEAYREAREVFVDKLPEIGLGTFADPDGGLYLWVDVSAYTDDSEEWALRLLDEAGVAVAPGVDFDPEEGHKWIRLSLCASKEDTIEGVRKIGEFIKKEGHHHHHH	soluble
MSLKPTVWHHLRLCPHGHPDETIDDAAIAVDETGTIVWLGAVSALPHGYAHWRREDLHGAWVTPGLVDCHTHLVYGGTRADEFAQRLAGVSYEEIARQGGGIVSTVRATRAADETTLFVQAAARLQPLLAEGVTAIEIKSGYGLDLASERKMLRVARQLGERFPVTVYTTFLGAHALPPEYAGRADAYIDEVCDRMLPALADEGLVDAVDVFCERIGFSLAQTERVFEAATRRGLPVKLHAEQLSNAGGTALAARYRALSADHLEFLDEAGIEAMKAAGTVAVLLPGAYYFIRETQLPPIELLRKHGVPIALATDHNPGTSPLESLLLTLNMGCTLFRMTVPEVLQGVTCHAAAALGRADRHGALEVGRQADFAAWSVGSLAELAYWIGRPLCEQVVRGGTTVFRRMNGEGHHHHHH	soluble
MSLKQILNHARIVLADRVIDNGALEINDGRIAAIHEHALPDGEDLAGALLLPGLVEIHTDNLEKHLMPRNGVLWPILPAVITHDAQCVAAGITTVLDALAVGDLEGESVRLDTLHSSFDAINQGMREGALRADHFFHLRCELAYPGLLDELEALIAHPAVKLVSVMDHTPGQRQYRDLEQYKKYYGKKKVGWNEDTFLAAVAERKTKQAQYAGRHKQAVVELAQARGIALASHDDTDEAHIEEALRDGVAISEFPTTREAAAAAKRHGLATVMGAPNVVRGGSHSGNVAALELARHDLLDILSSDYVPASLLHGAWLLHAQAGWSLPRAVAAVSLNPAHSVGLADRGDIAVGQRADLVAMIVHGDVPLVRQVWNSGRRVFEGHHHHHH	soluble
